Biological target: P69P4
Test: BLI

B1: biotinylated natural Ara h 2 (natural protein)
chain: RQQWELQGDRRCQSQLERANLRPCEQHLMQKIQRDEDSYGRDPYSPSQDPYSPSQDPDRRDPYSPSPYDRRGAGSSQHQERCCNELNEFENNQRCMCEALQQIMENQSDRLQGRQQEQQFKRELRNLPQQCGLRAPQRCDLEVESGGRDRY
modifications: biotin (position not given)
Q: How did the Kd turn out when B1 was run?
A: 3.88 pM

Reference: paper doi:10.1101/2024.05.08.592267 (2024)
